# Test results taken from paper PMC7828300.
# Target: AAV12 capsid viral protein (VP) (Adeno-associated virus 12)
# Test: cryo-EM structure
substance,measurement,value
AAV12 capsid viral protein (VP) (natural protein),stoichiometry N,60
